Test results from US7060670B1, “Stereoselective antifibrillogenic peptides and peptidomimetics thereof” (Neurochem (International) Limited, priority 1999, dated 2006).
“Also recorded” adds a separate entry of the source. Non-standard residues stand in square brackets, D forms with d. No end group written: not given here.

How the values were obtained:
[1] = target: T1, Aβ(1–40) (Homo sapiens, UniProt P05067); test: thioflavin T fluorescence assay for fibrillogenesis of Aβ(1–40); type: biochemical; conditions: for Order Of Potency of Peptide Inhibitors, Tested at 20 μM / Order Of Potency of Peptide Inhibitors, Tested at 80 μM: rank, 1 = strongest activity, 11 = weakest, Aβ(1–40) 20 μM, by first appearance of fluorescence over 5-90 hours; for Order Of Potency of Peptide Inhibitors, Tested at 20 μM: peptide 20 μM; for Order Of Potency of Peptide Inhibitors, Tested at 80 μM: peptide 80 μM; for concentration required to give an equivalent inhibition: all-[D] versus all-[L] stereoisomer; for inhibition of [L]-Aβ (1–40) assembly/fibrillogenesis compared with the opposite stereoisomer: FIG. 2, all-[L] Aβ (1–40)
T1 construct: Aβ (1–40) 95% purity (American Peptide Company); purchased American Peptide Company, Inc 62-0-78
T1 sequence (P05067 672-711 limits assumed): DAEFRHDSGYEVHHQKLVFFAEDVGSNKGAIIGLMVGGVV
Text: The thioflavin T fluorescence assay for fibrillogenesis is based on the principle that the fluorescent dye, thioflavin T, binds specifically to fibrillar, but not to unaggregated Aβ peptide (LeVine III, H., 1993, Protein Science 2:404–410). Upon binding, thioflavin T develops a characteristic fluorescence (Naiki, H., et al., 1996, Lab. Invest. 74: 374–383) which can be easily detected. The dye is believed to interact with the stacked cross-β pleated sheets, the common structural motif of all amyloids (LeVine III, H., 1995, Amyloid: Int. J. Exp. Clin Invest. 2:1.6). Thioflavin T is widely used to assay the effect of compounds on Aβ peptide fibrillogenesis (Bronfman, P. C., et al., 1995, Neuroscience Lett. 218:201–203). In this assay test compounds are incubated with a solution of Aβ(1–40) (20 μM) containing 10 μM thioflavin T, in 0.02M Tris/0.02M acetate/0.15M NaCl/0.005% azide/pH 7.40 at 37° C. in sealed 384 well microplates. Readings (ex 430 nm/em 485 nm) are taken at various time intervals with a microplate fluorescence reader. An increase in fluorescence signifies the appearance of amyloid or intermediates in the production of amyloid. Inhibitors of fibrillogenesis will lead to less fluorescence production. The results illustrated in Table 1 below, are based on the fluorescence production in the presence of test peptides at either 20 μM or 80 μM concentration, at the time intervals of 5, 19, 45, 67, 77 and 90 hours, compared to a control, buffer alone, without added inhibitory peptide. Protocol Aβ peptide: Aβ (1–40) 95% purity (American Peptide Company, Inc, Sunnyvale, Cal. USA, cat. 62-0-78) is disaggregated in trifluoroacetic acid and filtered through a […] filter, (Whatman Anotop 25 plus, 0.02 μm, Catalogue no. 6809 4102) in hexafluoroisopropanol (HFIP). Solutions of Aβ (1–40) at 600 μM in HFIP are stored at −80° C. Assay mixture: The mixture is prepared as two solutions that are combined upon addition to the 384 well microplate (Corning Costar cat. 3705). • i) Solution A consists of test peptides in 0.02M Tris/0.02M acetate/0.15M NaCl/0.01% azide at pH 7.40 or buffer alone (control), • ii) Solution B consists of Aβ(1–40) 40 μM, thioflavin T 20 μM in 0.02M Tris/0.02M acetate/0.15M NaCl at pH 7.40. This solution is prepared by drying the Aβ peptide under nitrogen and then resuspending this in 0.04M Tris base with 15 minutes sonication. An equal volume of 0.04M acetic acid containing 0.3 M NaCl is added and the solution is adjusted to pH 7.40±0.02. A small volume of 5 mM thioflavin T is added to the solution to give a final 20 μM concentration of thioflavin T. • iii) The microplate is loaded with 40 μL of solution A followed by 40 μL of solution B which gives a final 20 μM Aβ(1–40), 10 μM thioflavin T, and either 20 μM, 80 μM or 100 μM test compound in 0.02M Tris/0.02M acetate/0.15M NaCl/0.005% azide, pH 7.40. The plate is sealed and loaded into the microplate fluorescence reader. Fluorescence measurement data analysis: The HTS-7000 Bio Assay Reader, Perkin Elmer, is used to perform kinetic runs of about 5 days. Readings were taken at various time intervals, 5, 19, 45, 67, 77 and 90 hours, with one minute shaking before each reading. Bandpass filters used were: excitation 430 nm, emission […]. Calculations The rank order of efficacy of the peptides is determined by observing which peptides allow the appearance of fluorescence, above the background level, first. For example in the presence of buffer control alone, fluorescence appears earlier than when any of the peptides is present.

[2] = target: Aβ (Homo sapiens, UniProt P05067); test: Aβ-NBD environmental probe fibrillogenesis assay; type: biochemical
Aβ, sequence (P05067 672-711 limits assumed): as above

[3] = test system: SH-SY5Y human neuroblast cell line; test: MTT cytoprotection assay, Aβ (1–40) toxicity on SH-SY5Y cells; type: cell-based; conditions: FIG. 6, 100 μM test peptide, listed as all-[D]-Lys-Lys-Leu-Val-Phe-Phe-Ala
Method: FIG. 6 uses the MTT assay on SH-SY5Y cells.
A SH-SY5Y human neuroblast cell line (American Type Culture Collection, cat. CRL-2266) is cultured according to technical specifications. Monomerized Aβ (1–40) is prepared using trifluoroacetic acid and hexafluoroisopropanol, in the same way already described for the thioflavin T fluorescence assay. Monomerized Aβ at various concentrations in TANA buffer (0.02 M TRIS base pH 7.4, 0.02M acetate, 0.15 M NaCl) is added to 100 μM test peptide and the mixture is incubated for 24 hours at 37° C. with agitation, in order to allow polymerization to occur. Cells are adhered to a 96-well microplate for 2 hours at 37° C. and 5% CO2 before the Aβ-peptide mixture, or buffer alone (control), is added. The microplate is gently agitated and incubated for 20–24 hours at 37° C. and 5% CO2. Cell viability is determined by a MTT-based colorimetric assay. The MTT assay (Boehringer Mannheim, Cell Proliferation Kit 1) is based on the principle that the yellow tetrazolium salt MTT is cleaved in metabolically-active cells to produce purple formazan crystals. The formazan crystals are solubilized and the resulting colored solution is quantified using a scanning multiwell spectrophotometer (ELISA reader, Absorbance A560 nm). Cellular toxicity was calculated as follows: […]

[4] = test system: all-[D]-Aβ (1–40); test: thioflavin T fluorescence assay for fibril formation by [D]-Aβ (1–40); type: biochemical; conditions: FIG. 3
[5] = test system: fetal rat primary cortical neurons; test: propidium iodide assay on primary cortical neurons with Aβ; type: cell-based; conditions: FIG. 7; compared to Congo red and Aβ alone; 3 days; listed as all-[D]-Lys-Leu-Val-Phe-Phe-Ala
Method: FIG. 7 uses the propidium iodide assay on primary cortical neurons. Briefly, fetal rat primary cortical neurons are isolated and cultured according to Durkin, J. P. et al., J. Neurochem., 66:951–962, 1996. Neurons are plated in a 48 well microplate. 7 days after plating the neuronal culture media is supplemented with B27 (Life Technologies, Data sheet form No. 3755). A mixture of Aβ and test peptide is added to the cortical neurons for 3 days at 37° C. and 5% CO2.
Cell viability is then visually assessed as the proportion of phase-bright cells that exclude propidium iodide, since only dead cells take up propidium iodide.

[6] = target: T2, IAPP (Homo sapiens, UniProt P10997); test: IAPP fibril formation (thioflavin T assay, circular dichroism, electron microscope); type: biochemical; conditions: circular dichroism and thioflavin T assay
T2 sequence (P10997 34-70 limits assumed): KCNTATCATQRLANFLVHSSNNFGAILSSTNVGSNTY
Text: Other amyloidogenic peptides such as IAPP, have also been tested.
The full-length IAPP is 37 amino acids and the β-sheet region is the 20–29 sequence. The 20–29 sequence is critical for forming β-sheet and has been previously shown to be a key region in modulating IAPP aggregation and folding.
Hexapeptides spanning the 20–29 region (Ser-Asn-Asn-Phe-Gly-Ala-Ile-Leu-Ser-Ser) of the IAPP protein were synthesized and tested for their ability to prevent fibril formation as determined by circular dichroism and the thioflavin T assay. […] These peptides (Ser-Asn-Asn-Phe-Gly-Ala- and Asn-Asn-Phe-Gly-Ala-Ile) were directed towards the central core of the 20–29 region.

[7] = target: T3, Aβ40 (Homo sapiens, UniProt P05067); test: CD spectrum of Aβ40 incubated with peptide (β-sheet content); type: biochemical; conditions: for β-sheet content of Aβ40 by CD spectrum at time t=0: physiological conditions
T3 construct: when incubated with Aβ40 under physiological conditions
T3 sequence (P05067 672-711 limits assumed): as the sequence (P05067 672-711 limits assumed) above
Text: (§1) It is the understanding of the inventors that this interesting observation will lead to a greater understanding of fibrillogenesis of Aβ40 and Aβ42 peptides and as a result, will provide important information for the design of potent anti-fibrillogenic compounds for Aβ, other amyloidotic peptides such as AA, AL and IAPP for the treatment of diseases such as Alzheimer's, Type II Diabetes and amyloidosis related disorders. The same principle can also be applied to the design of peptide type compounds for the inhibition of binding of various chemokines to the cell surface as well as inhibition of self assembly and cellular adherence of prion proteins.

[8] = target: T3, Aβ40; test: electron microscopy of peptide/Aβ40 mixture; type: biochemical; conditions: mixture of peptide and Aβ40
Text: as §1

[9] = test system: 125I-LBMP1620; conditions: peptide synthesized by SPOT technique; cited from earlier work

Row | Substance | Order Of Potency of Peptide Inhibitors, Tested at 20 μM [1] | Order Of Potency of Peptide Inhibitors, Tested at 80 μM [1] | also measured
1 | Lys-Ile-Val-Phe-Phe-Ala ([dK][dI][dV][dF][dF][dA]) [(D) KIVFFA] | 1 (D) KIVFFA | 5 (D) KIVFFA | –
2 | KKLVFFA [reference compound] | 10 (L) KKLVFFA | 7 (L) KKLVFFA | concentration required to give an equivalent inhibition [1]: 400 µM
3 | AFFVLK [reference compound] | 11 (L) AFFVLK | 11 (L) AFFVLK | –
4 | Lys-Lys-Leu-Val-Phe-Phe-Ala [(D) KKLVFFA] ([dK][dK][dL][dV][dF][dF][dA]) | 2 (D) KKLVFFA | 1 (D) KKLVFFA | inhibition of [L]-Aβ (1–40) assembly/fibrillogenesis compared with the opposite stereoisomer [1]: much more potent inhibitors; concentration required to give an equivalent inhibition ([1]; listed as all-[D] stereoisomer peptide): 6.1 µM; potency of all-[D] relative to all-[L] stereoisomer peptide ([1]; from 400 μM all-[L] versus 6.1 μM all-[D]): about 60 times; potency at lowest concentration tested versus highest concentration of all-[L] peptide ([2]; all-[D] 25 μM versus all-[L] 800 μM): more potent than the highest concentration of the all-[L] peptide; potency of all-[D] relative to all-[L] stereoisomer peptide ([2]; estimate from 25 μM all-[D] versus 800 μM all-[L]): at least 30 times; inhibition of Aβ (1–40) neurotoxicity (cytoprotection) [3]: potent cytoprotective agents; also recorded: more potent inhibitor
5 | KLVFFA [reference compound] | 8 (L) KLVFFA | 8 (L) KLVFFA | inhibition of all-[D]-Aβ (1–40) assembly compared with the opposite stereoisomer [4]: more potent inhibitor
6 | Lys-Phe-Val-Phe-Phe-Ala ([dK][dF][dV][dF][dF][dA]) [(D) KFVFFA] | 4 (D) KFVFFA | 1 (D) KFVFFA | –
7 | Lys-Ala-Val-Phe-Phe-Ala ([dK][dA][dV][dF][dF][dA]) [(D) KAVFFA] | 7 (D) KAVFFA | 6 (D) KAVFFA | –
8 | Lys-Leu-Val-Phe-Phe-Ala [(D) KLVFFA] ([dK][dL][dV][dF][dF][dA]) | 3 (D) KLVFFA | 1 (D) KLVFFA | inhibition of [L]-Aβ (1–40) assembly/fibrillogenesis compared with the opposite stereoisomer ([1]; listed as all [D]-Lys-Leu-Val-Phe-Phe-Ala): more potent inhibitor; inhibition of [L]-Aβ (1–40) assembly/fibrillogenesis compared with the opposite stereoisomer ([1]; listed as all-[D]-Lys-Leu-Val-Phe-Phe-Ala): much more potent inhibitors; cytoprotective activity against Aβ [5]: potent cytoprotective agents; also recorded: potent cytoprotective activity
9 | Lys-Leu-Val-Phe ([dK][dL][dV][dF]) [(D) KLVF] | 6 (D) KLVF | 9 (D) KLVF | –
10 | NNFGAI [hexapeptide from the 20–29 β-sheet region of IAPP] | – | – | blocking of IAPP fibril formation [6]: capable of blocking the formation of IAPP fibrils
11 | SNNFGA [hexapeptide from the 20–29 β-sheet region of IAPP] | – | – | blocking of IAPP fibril formation [6]: capable of blocking the formation of IAPP fibrils
12 | Ala-Phe-Phe-Val-Leu-Lys [(D) AFFVLK] ([dA][dF][dF][dV][dL][dK]) | 5 (D) AFFVLK | 1 (D) AFFVLK | –
13 | Asp-Asp-Asp (DDD; peptide having antifibrillogenic activity and/or neuroprotection) [tripeptide] | – | – | β-sheet content of Aβ40 by CD spectrum after 24 hours incubation [7]: no trace of β-sheet conformation; β-sheet content of Aβ40 by CD spectrum at time t=0 [7]: slight decrease
14 | KVDDQD [hexapeptide] | – | – | anti-fibrillogenic activity in thioflavin-T based fluorescence assay ([1]; in vitro): confirm this finding; anti-fibrillogenic activity in NBD based fluorescence assay ([2]; in vitro): confirm this finding; β-sheet content of Aβ40 by CD spectrum after 24 hours incubation [7]: dramatic increase; β-sheet content of Aβ40 by CD spectrum at time t=0 [7]: increase; fibrils seen by electron microscopy [8]: failed to show any fibrils
15 | Lys-Leu-Val-Phe-Phe [(D) KLVFF] | 9 (D) KLVFF | 10 (D) KLVFF | 125I-LBMP1620 binding [9]: failed to bind
